Consider 6 sequences from a protein production outcome set (Wang et al. 2014).

A short description of the series: label from the status in PepcDB records.
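Note: failed if final PepcDB status was selected cloned or expressed and not failed if soluble or beyond.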

Consider “MDFLPIFVIIASVMTAVSVYLIYLVKKGINGIGFLLVLYLSGSMLTMFISLSIALSNTALTTEILALTVNTAYMIVGLVSILLLGASRRKIESRKWYTVLLFSLLMTISEAVMGESFYSILTKSIGNPLIGTENYWFYAVMLAEMTFTLVYSFNSLTRQIRNYLLVTLPIMVVSPVILPTFSIWLSSLLMIVATIIIYDTLYRDRLKKTQETFTSLELMLIFTLMMAGIFTYYVTSSWYLYDISMILGMTWFIYRAIQGPSSIKGNYLRDSRWTFAFVLMTFVMEWFMGAVLDFASSYFSPGVEGFISSLPLGFVNPFSYFGAGALFDFLSIFGSVTGSVWFLVMMGLEMGTLAIFRIKEVRLRENRIRLALMVSAFAIYAVYIPSFSPLASKIPYIPYMWSMGLGTLGPVSTDYLLSGIVGTYVLSAVLSFLFGSRQICSVTCTAPTMYQGTFYNSLKVYNRTSSFARKTLSSKLRPWYKLIAIAVWSSLLAFAVISYFDQKGILNITIFGNDPTMFLYSFYFNFLWYVVFISIPFSGNYACVTQGWCSWGTFNQFFGGLGLFRLKVKDPELCVKCETKACSKACPVGNTDLPGNFIKKGEFKSSRCIGVGDCAEACPYDNIMFYDVRSWLKEKIKGDKM”, for which the protein production entry is on record as “failed”.

For the sequence “MDFLTEWIWFFLFVPLAALGGWIVGRRGGQRHGDTQVSRLSSTYFRGLNYLLNEQPDKAIELFLHIAELDKETFETQVALGHLFRRRGEVDRAIRLHQGLVQRGDLTDQQRVQALLALGEDYMKSGLLDRAETVFTELAQLDQRAPQALRHLIGIYQAERDWEKAIDNATRYEEVTGEPMGKLISQFECELADRYRGLGKTDDALQAIARAYQADGTSVRAGILEGRIEAERGHDEAAVRAFERAARHDPEYLPEIIPALMAAYRRVGDIAGARNFLSEMTEHYRGIAPVLALTQLMEAQDGVAPALAYLGRQLKDRPSVRGESALIDLTLAEGSDPVGTLQDLKHITDQLLVRNPSYRCTRCGFGAKTHHWQCPSCKEWGTVKPLLNYAVV”, the protein production entry was “failed”.

Regarding “MDFNYTIKALRTKKKLDAKPMTHTDFCYTIKALRSTKKLDAKPKPHTDFGYTIKVLRSRKKLELEPQLDLKSLSSVDLLEDTNSKTHTDFSYTIKASRSKKKLDTKSKTRTVFDYTIKAFRSKKKLDRKPKTHTDFGYTFKAMRSKKKLC”, the protein production result is recorded as “failed”.

On to “MDFQAVTDELKTWTKARVMPGFSVALLTGKTVQTAVSGEAQWFPQPAPLQPHMLYDVASLTKVIGTTTVFLQAWDQGLVSPDMPLHRFLPDFPHTTTFRQALTHTSGLEGYIPHRNALPAPALKQALMTQLTVTEEVDRQVVYRDVNLLLVGWALEQVYHQPIQTLITRQVIQPLALPQATFQPDSQQCVPTTYSPAVGLRQGVVHDPKSAILGKHSGAAGLFASLADLVTFTEYFFGNRQSASWPAHAVDLTQDWTKHHLGRSLGWDLRRDGQGRLWLYHTGYTGTFWLIQPDDQLALVVLTNRVHPQPNPAFLARRDALIARFLSDFKTMPAV”, for which the protein production result is given as “failed”.

Regarding “MDFRRAPELIGRLQEQAVVPREQGVQRLMRLALEYWLLPVLLLAAAVRFYDLTAAAIWGDEGSSLVLSQYSLSEIWFHAARDVHPPLYFMLLRGWIELFGDGIFSIRTFSALPGIVTVGLGMWLVALLATRRAAILAGVLLALLPTAVRYSQEVRMYALLGLLLLGATLALVYWLRQPSRPGYLVSYALLMTLAFYTHYFTAFCVLAHWLYLAVSGVRAEGGGRLVTRPAWWLANAAIVLLFLPWVPELLDLLRHMDELKANGDVGWEPVVTWSSLPAMVWQLLIQDEGDNLPGALFVGMPLLLLAVCSVLAWRDGAPARFGGLLASFTLLPLLLVFAVSFASPVFIERYLTAYALGLPMIMAVLIDRWLKTARLVALALLLGFVGLEAVGLKNNIDVDANDQISVMVDYVNRHYVAGDRIVISDMLWYLSYVYYNRTDAQPMLYTPPLPGGTSSRPNAYGFGTLIDHPDQVYLDQLSALSVGSGRYWLVGSDDQSEEFAPLPQGWHKVGQFAAGGTRARLFVLCGSAAGASCAGQ”, the protein production entry was “failed”.

Take “MDFSPPTTTADQSRRGFLKKSLAVSATVAAIGSLPRLSAAEPLTQRYPDPLVGVLDDSFLDIRIFNASVEKLATGMRWAEGPVWVGDGRYLLVSDIANNRIMRWDEVTGALSVYREHSNFSNGMCRDRQGRLLVCEGSSTTSEGRRVTRTEYNGRITVLADSFDGKPFNSPNDIVCKHDGSIWFTDPTFQANSDYEGHKVKQEQPFGVYRIDPSSGKVSRVIDDLAGPNGLCFSPDEKTLYVVEGRAKPNGLIWAIAVNEDGTLGERRKHVEGLEYAAIDGIKCDESGNLWCGWGGNGNPKADLEKLDGVRVFNPQGKAIGHISLPERCANLCFGGREGNRLFMASSHSLYSVFVNARGATLA”: the protein production result is reported as “failed”.
